Data reported in publication PMC3072108 (Cell, 2011).

B1: UBC-domain of Ube2S (domain or fragment)
chain: MNSNVENLPPHIIRLVYKEVTTLTADPPDGIKVFPNEEDLTDLQVTIEGPEGTPYAGGLFRMKLLLGKDFPASPPKGYFLTKIFHPNVGANGEICVNVLKRDWTAELGIRHVLLTIKCLLIHPNPESALNEEAGRLLLENYEEYAARARLLTEIHG
B2: Ube2S (enzyme, UniProt Q16763 1-222, looked up)
chain: MNSNVENLPPHIIRLVYKEVTTLTADPPDGIKVFPNEEDLTDLQVTIEGPEGTPYAGGLFRMKLLLGKDFPASPPKGYFLTKIFHPNVGANGEICVNVLKRDWTAELGIRHVLLTIKCLLIHPNPESALNEEAGRLLLENYEEYAARARLLTEIHGGAGGPSGRAEAGRALASGTEASSTDPGAPGGPGGAEGPMAKKHAGERDKKLAAKKKTDKKRALRRL

Biological target: ubiquitin (UniProt P0CG48 1-76)
Experiment: NMR titration

Row | Binder | Kd [µM]
1 | B1 | 1110 ± 80
2 | B2 | 1700 ± 80
